Patent US20130315910A1 (Xencor, published 2013)

T1: mFcγRIV
T1 construct: also called mouse FcγRIV; not shown: C-terminal His and GST tags (named only on our card)
T1 chain: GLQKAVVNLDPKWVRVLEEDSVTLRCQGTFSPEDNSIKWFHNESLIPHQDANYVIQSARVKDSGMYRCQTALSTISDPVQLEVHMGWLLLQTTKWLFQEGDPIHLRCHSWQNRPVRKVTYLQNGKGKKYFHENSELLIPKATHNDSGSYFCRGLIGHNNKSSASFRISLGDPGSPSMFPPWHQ

T2: cynoFcγRIIb (Macaca fascicularis, UniProt A0A140HDP4)
T2 construct: extracellular region, C-terminal His- and GST-tag; also called cynomolgus monkey FcγRIIb
T2 sequence (receptor extracellular region): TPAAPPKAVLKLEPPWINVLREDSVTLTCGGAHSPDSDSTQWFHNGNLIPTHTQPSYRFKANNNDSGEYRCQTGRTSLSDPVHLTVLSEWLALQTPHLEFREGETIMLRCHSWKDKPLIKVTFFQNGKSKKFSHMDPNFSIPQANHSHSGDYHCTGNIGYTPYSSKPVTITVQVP

T3: mFcγRIIb (Mus musculus, UniProt P08101)
T3 construct: extracellular region, C-terminal His- and GST-tag; also called mouse FcγRII
T3 sequence (receptor extracellular region, looked up): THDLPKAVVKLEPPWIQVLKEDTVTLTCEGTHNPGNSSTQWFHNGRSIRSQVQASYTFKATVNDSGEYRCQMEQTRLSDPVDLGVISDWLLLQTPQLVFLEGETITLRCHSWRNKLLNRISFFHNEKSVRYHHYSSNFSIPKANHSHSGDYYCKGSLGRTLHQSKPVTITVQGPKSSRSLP

T4: human FcγRIIb receptor protein (R&D Systems) (human, UniProt P31994 46-217)
T4 construct: Bought protein injected over captured antibody in Biacore; also called CD32b
T4 sequence (looked up): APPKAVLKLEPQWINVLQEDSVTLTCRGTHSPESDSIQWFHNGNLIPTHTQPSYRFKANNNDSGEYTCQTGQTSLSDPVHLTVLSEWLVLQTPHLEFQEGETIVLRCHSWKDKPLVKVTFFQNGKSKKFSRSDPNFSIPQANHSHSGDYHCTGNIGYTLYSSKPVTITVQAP

T5: human FcγRIIa (131H), His- and GST-tagged (human, UniProt P12318 34-217)
T5 construct: also called H131 FcγRIIa; HIIa; not shown: 6xHis and GST tags of the pTT5 vector
T5 sequence (looked up): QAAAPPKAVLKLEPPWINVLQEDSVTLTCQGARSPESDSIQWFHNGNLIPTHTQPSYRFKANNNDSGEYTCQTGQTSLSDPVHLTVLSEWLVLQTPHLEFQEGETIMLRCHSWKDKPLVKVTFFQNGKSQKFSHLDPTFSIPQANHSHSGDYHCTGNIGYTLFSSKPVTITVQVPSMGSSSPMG

T6: human FcγRIIa (131R), His- and GST-tagged (human, UniProt P12318 34-217)
T6 construct: Expressed in HEK293T cells, purified by nickel chromatography; also called R131 FcγRIIa; not shown: 6xHis and GST tags of the pTT5 vector
T6 sequence (looked up): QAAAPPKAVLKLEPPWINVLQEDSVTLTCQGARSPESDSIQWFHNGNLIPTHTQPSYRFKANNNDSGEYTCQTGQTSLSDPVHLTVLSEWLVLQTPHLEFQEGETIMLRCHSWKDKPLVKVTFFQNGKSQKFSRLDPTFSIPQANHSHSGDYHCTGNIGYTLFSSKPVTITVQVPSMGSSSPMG


Key:
Experiment in all cases: SPR
mFcγRIV = target: T1, mFcγRIV
cynoFcγRIIb = target: T2, cynoFcγRIIb
mFcγRIIb = target: T3, mFcγRIIb
cynoFcγRIIIa = target: T7, cynoFcγRIIIa (Macaca fascicularis, UniProt Q8SPW2)
T7 construct: extracellular region, C-terminal His- and GST-tag; also called cynomolgus monkey FcγRIIIa

[1] = target: T4, human FcγRIIb receptor protein (R&D …)
[2] = target: T8, human FcγRIIIa (158V), His- and GST-tagged (human, UniProt P08637 17-208)
T8 construct: also called V158 FcγRIIIa; VIIIa; not shown: 6xHis and GST tags of the pTT5 vector

[3] = target: T5, human FcγRIIa (131H), His- and …
[4] = target: T9, human FcγRI receptor protein (R&D Systems) (human, UniProt P12314 16-288)
T9 construct: also called soluble FcγRI; solFcγRI

[5] = target: T6, human FcγRIIa (131R), His- and …

T7 sequence (Q8SPW2 17-208): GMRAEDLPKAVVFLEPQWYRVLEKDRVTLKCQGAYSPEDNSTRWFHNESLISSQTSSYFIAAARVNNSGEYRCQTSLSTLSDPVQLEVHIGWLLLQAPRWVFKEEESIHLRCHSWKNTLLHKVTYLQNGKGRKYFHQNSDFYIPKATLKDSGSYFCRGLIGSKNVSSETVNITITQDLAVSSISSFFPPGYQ
T8 sequence (P08637 17-208 F176V): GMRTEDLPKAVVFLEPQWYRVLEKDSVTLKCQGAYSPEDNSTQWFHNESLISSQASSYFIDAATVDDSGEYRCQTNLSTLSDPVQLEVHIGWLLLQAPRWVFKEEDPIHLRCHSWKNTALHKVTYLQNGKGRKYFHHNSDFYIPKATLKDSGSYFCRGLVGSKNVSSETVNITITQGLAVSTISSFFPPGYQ
T9 sequence (P12314 16-288 limits assumed): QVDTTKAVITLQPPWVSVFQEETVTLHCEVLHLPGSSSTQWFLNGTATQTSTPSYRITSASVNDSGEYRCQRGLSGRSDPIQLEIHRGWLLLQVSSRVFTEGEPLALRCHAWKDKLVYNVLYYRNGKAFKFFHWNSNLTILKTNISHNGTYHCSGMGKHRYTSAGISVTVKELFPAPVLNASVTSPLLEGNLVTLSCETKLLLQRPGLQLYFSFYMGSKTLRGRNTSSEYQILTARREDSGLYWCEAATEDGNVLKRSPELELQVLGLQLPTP

Fold vs WT IgG1 (Kd) (mFcγRIV) [fold]	Fold vs WT IgG1 (off-rate) (mFcγRIV) [fold]	Fold vs WT IgG1 (Kd) (cynoFcγRIIb) [fold]	Fold vs WT IgG1 (off-rate) (cynoFcγRIIb) [fold]	Fold vs WT IgG1 (Kd) (mFcγRIIb) [fold]	Fold vs WT IgG1 (off-rate) (mFcγRIIb) [fold]	Fold vs WT IgG1 (Kd) (cynoFcγRIIIa) [fold]	Fold vs WT IgG1 (off-rate) (cynoFcγRIIIa) [fold]	Fold vs WT IgG1 [1] [fold]	Kd [1] [nM]	Fold vs WT IgG1 [2] [fold]	Kd [2] [nM]	Fold vs WT IgG1 [3] [fold]	Kd [3] [nM]	Fold vs WT IgG1 [4] [fold]	Kd [4] [nM]	Fold vs WT IgG1 [5] [fold]	Kd [5] [nM]	binding result [1]	binding result [5]	Binder
0.315	0.876	1.16	1.15	1.86	4.1	0.783	0.515	1.33	1100	0.398	481	0.733	882	2.06	0.16	1.6	536			A327D (antibody, human IgG1, kappa, HuAM4G7 anti-CD19 IgG1 (m1) with this Fc substitution, EU index; copies: 2 + 2) heavy: not shown light: DIVMTQSPATLSLSPGERATLSCRSSKSLQNVNGNTYLYWFQQKPGQSPQLLIYRMSNLNSGVPDRFSGSGSGTEFTLTISSLEPEDFAVYYCMQHLEYPITFGAGTKLEIKRTVAAPSVFIFPPSDEQLKSGTASVVCLLNNFYPREAKVQWKVDNALQSGNSQESVTEQDSKDSTYSLSSTLTLSKADYEKHKVYACEVTHQGLSSPVTKSFNRGEC
0.47	1.45	1.48	3.94	1.11	2.63	4.24	1.65	3.06	480	3.08	62.2	1.89	342	2.35	0.14	4.19	205			H268D (antibody, human IgG1, kappa, HuAM4G7 anti-CD19 IgG1 (m1) with this Fc substitution, EU index; copies: 2 + 2) heavy: not shown light: DIVMTQSPATLSLSPGERATLSCRSSKSLQNVNGNTYLYWFQQKPGQSPQLLIYRMSNLNSGVPDRFSGSGSGTEFTLTISSLEPEDFAVYYCMQHLEYPITFGAGTKLEIKRTVAAPSVFIFPPSDEQLKSGTASVVCLLNNFYPREAKVQWKVDNALQSGNSQESVTEQDSKDSTYSLSSTLTLSKADYEKHKVYACEVTHQGLSSPVTKSFNRGEC
	1.42		2.23		2.44		1.51	2.62	560	2.19	87.5	1.43	453	2.74	0.12	3.19	269			H268E (antibody, human IgG1, kappa, HuAM4G7 anti-CD19 IgG1 (m1) with this Fc substitution, EU index; copies: 2 + 2) heavy: not shown light: DIVMTQSPATLSLSPGERATLSCRSSKSLQNVNGNTYLYWFQQKPGQSPQLLIYRMSNLNSGVPDRFSGSGSGTEFTLTISSLEPEDFAVYYCMQHLEYPITFGAGTKLEIKRTVAAPSVFIFPPSDEQLKSGTASVVCLLNNFYPREAKVQWKVDNALQSGNSQESVTEQDSKDSTYSLSSTLTLSKADYEKHKVYACEVTHQGLSSPVTKSFNRGEC
	0.507		0.92		1.02		0.535	1.05	1400	0.504	380	1.35	479	0.00232	142	1.28	669			L235Y (antibody, human IgG1, kappa, HuAM4G7 anti-CD19 IgG1 (m1) with this Fc substitution, EU index; copies: 2 + 2) heavy: not shown light: DIVMTQSPATLSLSPGERATLSCRSSKSLQNVNGNTYLYWFQQKPGQSPQLLIYRMSNLNSGVPDRFSGSGSGTEFTLTISSLEPEDFAVYYCMQHLEYPITFGAGTKLEIKRTVAAPSVFIFPPSDEQLKSGTASVVCLLNNFYPREAKVQWKVDNALQSGNSQESVTEQDSKDSTYSLSSTLTLSKADYEKHKVYACEVTHQGLSSPVTKSFNRGEC
	1.93		1.25		3.1		2.26	0.803	1830	3.49	54.8	0.49	1320	1.65	0.2	0.688	1250			S239E (antibody, human IgG1, kappa, HuAM4G7 anti-CD19 IgG1 (m1) with this Fc substitution, EU index; copies: 2 + 2) heavy: not shown light: DIVMTQSPATLSLSPGERATLSCRSSKSLQNVNGNTYLYWFQQKPGQSPQLLIYRMSNLNSGVPDRFSGSGSGTEFTLTISSLEPEDFAVYYCMQHLEYPITFGAGTKLEIKRTVAAPSVFIFPPSDEQLKSGTASVVCLLNNFYPREAKVQWKVDNALQSGNSQESVTEQDSKDSTYSLSSTLTLSKADYEKHKVYACEVTHQGLSSPVTKSFNRGEC
	0.588		0.831		2.1		0.437	53.4	27.5							74	11.6			S267E/L328I (antibody, human IgG1, kappa, HuAM4G7 anti-CD19 IgG1 (m1) with these Fc substitutions, EU index; copies: 2 + 2) heavy: not shown light: DIVMTQSPATLSLSPGERATLSCRSSKSLQNVNGNTYLYWFQQKPGQSPQLLIYRMSNLNSGVPDRFSGSGSGTEFTLTISSLEPEDFAVYYCMQHLEYPITFGAGTKLEIKRTVAAPSVFIFPPSDEQLKSGTASVVCLLNNFYPREAKVQWKVDNALQSGNSQESVTEQDSKDSTYSLSSTLTLSKADYEKHKVYACEVTHQGLSSPVTKSFNRGEC
	0.291		0.714		1.41		0.271											no binding	no binding	S298Q (antibody, human IgG1, kappa, HuAM4G7 anti-CD19 IgG1 (m1) with this Fc substitution, EU index; copies: 2 + 2) heavy: not shown light: DIVMTQSPATLSLSPGERATLSCRSSKSLQNVNGNTYLYWFQQKPGQSPQLLIYRMSNLNSGVPDRFSGSGSGTEFTLTISSLEPEDFAVYYCMQHLEYPITFGAGTKLEIKRTVAAPSVFIFPPSDEQLKSGTASVVCLLNNFYPREAKVQWKVDNALQSGNSQESVTEQDSKDSTYSLSSTLTLSKADYEKHKVYACEVTHQGLSSPVTKSFNRGEC
	1.19		0.826		1.42		0.979											no binding	no binding	V266I (antibody, human IgG1, kappa, HuAM4G7 anti-CD19 IgG1 (m1) with this Fc substitution, EU index; copies: 2 + 2) heavy: not shown light: DIVMTQSPATLSLSPGERATLSCRSSKSLQNVNGNTYLYWFQQKPGQSPQLLIYRMSNLNSGVPDRFSGSGSGTEFTLTISSLEPEDFAVYYCMQHLEYPITFGAGTKLEIKRTVAAPSVFIFPPSDEQLKSGTASVVCLLNNFYPREAKVQWKVDNALQSGNSQESVTEQDSKDSTYSLSSTLTLSKADYEKHKVYACEVTHQGLSSPVTKSFNRGEC
